Values belong to the binder of their own block, whether it stands above or below them.
Tests used:
[1] = molecular target: human wild-type RON (cell surface) (human, UniProt Q04912 25-1400); assay: cell-based or functional assay
[2] = molecular target: T1, delta 160 RON variant (cell surface) (human, UniProt Q04912 25-1400); assay: FACS, 10 ug/ml antibody, HT-29 cells, 4 C
T1 construct: whole, on cells; Splice variant; also called delta 160 variant
Experimental: Binding to cell surface wild-type RON and delta 160 RON at 4° C. was determined for antibodies 07F01, 12B11, 17F06, 18H09, and 29B06, using FACS. Cells expressing wild-type RON (PC3), and cells expressing delta 160 RON (HT-29), were harvested using cell dissociation buffer (Invitrogen), washed twice with FACS buffer (0.5% BSA PBS) and treated with CytoQ Antibody diluent and FC receptor block (Innovex). Purified antibodies were diluted at a concentration of 10 μg/ml, in FACS buffer. Cells were incubated with 100 μl of antibody mix for one hour, washed with FACS buffer three times, and incubated for 45 minutes with goat anti-mouse PE conjugated antibody (Jackson Immunoresearch Laboratories). Cells were washed three times with FACS buffer, resuspended in 300 μl of FACS buffer and analyzed using a Beckman Coulter Cytomics FC 500 FACS instrument.

[3] = molecular target: T2, recombinant human RON SEMA and PSI domains (human, UniProt Q04912 25-571); assay: SPR, Ab captured on anti-mouse IgG, 25 C, AVG
T2 construct: domain: SEMA+PSI; Commercial protein (R&D Systems); also called rhRON SEMA+PSI; hRON SEMA+PSI
Experimental: (§1) The binding affinities and kinetics of binding of antibodies 07F01, 29B06, 17F06, 18H09, and 12B11 to recombinant human RON-ECD/mFc fusion protein (rhRON ECD/mFc) and recombinant human RON SEMA and PSI domains (rhRON SEMA+PSI) (R&D Systems, Inc., Minneapolis, Minn.) were measured by surface plasmon resonance, using a Biacore T100 instrument (GE Healthcare, Piscataway, N.J.).
(§2) Rabbit anti-mouse IgGs (GE Healthcare) were immobilized on carboxymethylated dextran CM4 sensor chips (GE Healthcare) by amine coupling, according to a standard protocol. Analyses were performed at 25° C. and 37° C., using PBS containing 0.05% surfactant P20 as running buffer. The antibodies were captured in individual flow cells at a flow rate of 10 μl/min. Injection time was varied for each antibody to yield an Rmax between 30 and 60 RU. 250 μg/mL mouse Fc were injected at 30 μl/min for 120 seconds to block non-specific binding of antibodies to Fc portion of the protein when needed. Buffer, rhRon ECD/mFc or rhRON SEMA+PSI diluted in running buffer was injected sequentially over a reference surface (no antibody captured) and the active surface (antibody to be tested) for 300 seconds at 60 μl/minute. The dissociation phase was monitored for up to 3600 seconds. The surface was then regenerated with two 60-second injections of 10 mM Glycine-HCl, pH 1.7, at a flow rate of 60 μl/min. The rhRON ECD/mFc or rhRON SEMA+PSI concentration range tested was 0.625 nM to 20 nM.

[4] = molecular target: T2, recombinant human RON SEMA and PSI …; assay: SPR, Ab captured on anti-mouse IgG, 37 C, AVG
Experimental: as §1, §2

[5] = molecular target: T2, recombinant human RON SEMA and PSI …; assay: ECL competition, MSP binding to coated hRON SEMA+PSI; competitor MSP; average
Experimental: The biochemical neutralization assay measures inhibition of MSP binding to hRON by antibodies in hybridoma supernatants, using electrochemiluminescence (ECL). MA2400 96-well high binding plates (Meso Scale Discovery) were coated with 25 μl of 0.42 μg/mL hRON SEMA+PSI (an N-terminal portion of the ECD of hRON; R&D Systems) in PBS for one hour at room temperature with agitation. The plates were washed four times with PBS+0.1% Tween-20 (PBST), and blocked with 150 μl of charcoal-stripped fetal bovine serum (FBS) (Gibco). The hybridoma supernatant were added and incubated for 45 minutes at room temperature. After incubation, 5 μl of MSP (3 μg/mL) in charcoal stripped FBS was added to each well, and incubated for 45 minutes. The plate was washed four times with PBST, and 25 μl of 1 μg/mL biotinylated anti-MSP antibody (R&D Systems) was added to the plates for one hour at room temperature with agitation. The plates were washed four times with PBST, and incubated with 25 μl of 1 μg/mL ST-streptavidin (Meso Scale Discovery) for one hour at room temperature with agitation. The plates were washed four times with PBST, and 150 μl read buffer (Meso Scale Discovery) was added to each well before the plates were analyzed on a Sector Imager 2400 (Meso Scale Discovery) instrument. Antibodies 07F01, 18H09 and 29B06 each blocked MSP binding to hRON SEMA+PSI in this neutralization assay.
Antibodies 07F01, 12B11, 17F06, 18H09, and 29B06 were tested for inhibition of MSP binding to hRON SEMA+PSI, as measured by electrochemiluminescence (ECL) assay as described in Example 3. The antibodies (concentration range: 0.006-10 μg/mL) were incubated for 45 minutes at room temperature.

Percent Inhibition of MSP-induced HPAF-II cell migration, antibody 2 ug/ml [1]: 96.8% | HT-29 % cell surface binding [2]: 99% | Kd [3]: 180 pM | koff [3]: 7e-05 s⁻¹ | kon [3]: 420000 M⁻¹ s⁻¹ | Kd [4]: 1300 pM | koff [4]: 0.00069 s⁻¹ | kon [4]: 520000 M⁻¹ s⁻¹ | Maximum Neutralization (%) [5]: 87.6%
B1: 29B06 (antibody, mouse IgG1, kappa)
heavy: EVQLQESGPSLVKPSQTLSLTCSVTGDSITSGYWNWIRKFPGNKLEYMGYISYSGKTYYNPSLKSRISITRDTSKNHYYLQLISVTAEDTATYYCARSKYDYAMDYWGQGTSVTVSSAKTTPPSVYPLAPGSAAQTNSMVTLGCLVKGYFPEPVTVTWNSGSLSSGVHTFPAVLQSDLYTLSSSVTVPSSTWPSETVTCNVAHPASSTKVDKKIVPRDCGCKPCICTVPEVSSVFIFPPKPKDVLTITLTPKVTCVVVDISKDDPEVQFSWFVDDVEVHTAQTQPREEQFNSTFRSVSELPIMHQDWLNGKEFKCRVNSAAFPAPIEKTISKTKGRPKAPQVYTIPPPKEQMAKDKVSLTCMITDFFPEDITVEWQWNGQPAENYKNTQPIMDTDGSYFVYSKLNVQKSNWEAGNTFTCSVLHEGLHNHHTEKSLSHSPGK
light: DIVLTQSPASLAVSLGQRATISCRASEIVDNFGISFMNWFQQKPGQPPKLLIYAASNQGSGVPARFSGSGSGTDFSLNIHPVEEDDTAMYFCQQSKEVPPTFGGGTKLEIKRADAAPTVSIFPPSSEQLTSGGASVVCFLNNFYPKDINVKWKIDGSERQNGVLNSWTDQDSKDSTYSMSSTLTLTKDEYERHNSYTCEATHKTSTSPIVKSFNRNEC
notes: Murine hybridoma monoclonal, IgG1/kappa; also called mu29B06; antibody 29B06

Percent Inhibition of MSP-induced HPAF-II cell migration, antibody 2 ug/ml [1]: 95.6% | HT-29 % cell surface binding [2]: 99.1% | Kd [3]: 88 pM | koff [3]: 0.00036 s⁻¹ | kon [3]: 5.2e+06 M⁻¹ s⁻¹ | Kd [4]: 400 pM | koff [4]: 0.0008 s⁻¹ | kon [4]: 2e+06 M⁻¹ s⁻¹ | Maximum Neutralization (%) [5]: 88.3%
B2: 07F01 (antibody, mouse IgG1, kappa, V domains shown)
VH: EVKLLESGGGLVQPGGSLKLSCAASGFDFSRHWMSWVRLAPGKGLEWIAEINPDSRTINYTPSLKEKFIISRDNAKNSLFLQMNRVRSEDTALYYCARRVRIHYYGAMDCWGQGTSVTVSS
VL: DIVLTQSQKIVSTSVGARVSVTCKASQNVGSSLVWYQQKPGQSPKTLIYSASFRYSGVPDRFTGSGSGTDFTLTISNVQSEDLADYFCQQYNNYPLTFGAGTKLELKR
notes: Murine hybridoma monoclonal, IgG1/kappa; also called mu07F01; antibody 07F01

Source: US20120027773A1 (AVEO PHARMACEUTICALS, published 2012)
